Experimental data reported in the DeepSol protein solubility set.

Test: soluble on expression in E. coli; label from the status in PepcDB or PDB records
For “MGHHHHHHSHMVPSREALLGPGTTAIRCPKKLQNQNYKGHGLSKGKEREQRASIRFKTTLMNTLMDVLRHRPGWVEVKDEGEWDFYWCDVSWLRENFDHTYMDEHVRISHFRNHYELTRKNYMVKNLKRFRKQLEREAGKLEAAKCDFFPKTFEMPCEYHLFVEEFRKNPGITWIMKPVARSQGKGIFLFRRLKDIVDWRKDTRSSDDQKDDIPVENYVAQRYIENPYLIGGRKFDLRVYVLVMSVFAECLLWSGHRRQDVHLTNVAVQKTSPDYHPKKGCKWTLQRFRQYLASKHGPEAVETLFRDIDNIFVKSLQSVQKVIISDKHCFELYGYDILIDQDLKPWLLEVNASPSLTASSQEDYELKTCLLEDTLHVVDMEARLTGREKRVGGFDLMWNDGPVSREEGAPDLSGMGNFVTNTHLGCVNDRKKQLRQLFCS”, the “soluble on expression in E. coli” value was “soluble”. With “MGSDKIHHHHHHMDINTKNLKKNAFRVTKRRGITASRIRVPGGHLEAKFLSMIQNIAENYGDGSVHITSRQGFEIPGIKFEDMPKVNELLQPIIEGLNINQETALQGYSASGTRNITACVGNRVCPYGCYDTTSFAQRIEKAVFPHDLHFKIALTGCPNDCAKVRMHDFGIMGMTEPHYESDTCVSCGACVKVCKKKSVGALSAVNYKVVRRGEKCIGCGECVLKCPTGAWTRSEKTYYRLTLLGRTGKKNPRLGEDFIKWVDEDSIIKIILNTYDYVTKYIDPNAPGGKEHIGYIVDRTGFEEFKKWALKDVKLPSIAEVYTPIYWNGIKY” the “soluble on expression in E. coli” value was “not soluble”. For “MGSDKIHHHHHHMSLNSTPQSVRVHIGLFGKRNAGKSSIINAITNQSAAIVSDIAGTTTDPVFRPMEILPIGPCVLIDTAGLDDVGELGELRIGKSLDVLEKTDIALLVVDCQIGISQEDLSLIEKFNDKNIPHILILNKIDTIKNQSEILNLTKNKVKCPVVSVSSTDKIGIENLKNEIIKVLPKDSTEFKLVSDLIEPNDLVVLVVPIDKAAPKGRLILPQQQVIRDILDNGAISIVTKEDSLKETLSNLGKKPKLVITDSQVFPQVDKDTPKDIPLTSFSILFARQKGDLKELINGAYALENLKDGDKILMAEGCTHHRQTDDIGTVKIPNMIRKKTGKNITFEFSSGVSFTEDINKYALVVHCGACMMNRAGMLSRIEKAKSFNVPIVNYGVLIAYVKGILERSLELFNY”, the “soluble on expression in E. coli” value was “not soluble”. With “MEYLDEIKTLGLKPNTITYSMLMLASERKDDFEVSFKLLSQAKGDGVSPNLIMCRCITSLCKRRFEKACAGGEPVVSFKSGRPQIENKWTSMALMVYRETISGGTVPTTEVVSQVLGCLQLPHDAALRDRLISTLGINISSQKQHNIFPLVDGFGEYDPRAFSLLEEATSLGVLPSVSFNKIPLFFDTTELPKNVAEVYLLTIFKGLKHRLAAGAKIPHINLIISIQEKEIRTPEGEKTIDLTGRVGQEIGALLRRGFKIIASTIRKPNQSSATQHSTREPVT” the “soluble on expression in E. coli” value was “not soluble”. With “MSLDLLISNCTVFGREGSDAIGINEGRIAFIGIDRDLRAKKRIDLSGKIVFPGFIDSHAHLLSTGLEDIRLNLYHTKSKEEVVERIAEYSKGKEKVIAYRWDESMWKPQSSYLTSSDINGIPVPVVAFRRDGHMAVANQKAMDVIGTTRKEGIFKEDDIELLEPLVKPNEAEIRDALNTAANRAISLGIVAVRDMVDISTYNEYKNIKTPLKIYKVLYSDSIFDKFGTSSQNDWGIKAFLDGSLGSRTAAHKGWDASNLKMDESKFENFAKQIWMHNLPLAVHAIGEVAVETAAKVFYRNAGRNRNSIEHFELVDDDVLDYITKTTIISSQPNFLEWAGKGGMYEDRVGGEWLYKNNPFRWMIDRGIHLAFGSDSMPIGPMYGIYYAVNSEYQRQKITLEEAVRCYSEGGSYLLGTEGYMGMLRVGYSADMAVFDEKLLKDLRGIKAAKPEITIINGKIYTNEGHHHHHH” the “soluble on expression in E. coli” value was “not soluble”. In the case of “YDPSKDPSSSLARRNLIIGLMEKAGFITHAQAVRAKATPLVLHYTPVTQQGLAPYFTEYIRQTIKSSSMLEGVNVYRDGL”, the “soluble on expression in E. coli” value was “not soluble”. With “MIKQVGNTQINPLHRLTCHCGKVELELTLPNGIEKPRRCDCSMCRRRGAIVASVPLSGIRIVQGDDVLKLYQFNTHTAKHFFCSECGIYTHHQRRSDPSEYGYNVGCLEGVNPYELGDIEVMDGVNHPSDRLEHHHHHH” the “soluble on expression in E. coli” value was “not soluble”. For “MSLDESKGFIEDSKLSVKTRMLYFSRDFRNNAPGSQSRVEETGLGFLGTFESGFTQGTVGFGVDAIGMLGLKLDSGKGRAGTGLFPTGADGRSQDDYSEGGGAVKMRISNTVLKFGDQFTALPVLATDDSRLLPEVAEGGLITSNEIDDLTVHAGHFTALNAQAQTYHDSLNLTEANVFGGTYAITDSLSTSVYYSRIEDHFRKWYGNINWALPISDKQGLVFDFNIYDTKSIGNNLTGAYVSKSDGTNELDNIAASLSAAYNVGAHTFTLAYQKVSGDGDYAYGVDGGGTVFLANSVARSDFNAEDEKSWQARYDLNFAEFGVPGLTFMTRYVSGTGATTRTTDSGKEWERDIDVKYVMQSGPAKDLSFRVRQATYRSGEGHHHHHH”, the “soluble on expression in E. coli” value was “soluble”. For “GSHMSPSDLHLPVPGHPIAAIATPVGVGALAIVRISGAGVLDLADRVFRKVHGSGKLAEAAGYTAHFGRLYDGEEMVDEVIALVFRAPRSFTAEQMVEFTCHGGPVVVGRVLRLMLDNGCRLAEPGEFTRRAFLNGRIDLLQAEAIGEMIHARTESAYRTAVSQMKGDLSVRLGGLREQLIRSCALIELELDFSEEDVEFQSRDELTMQIETLRSEVNRLIDSYQHGRIVSEGVSTVIAGKPNAGKSTLLNTLLGQERAIVSHMPGTTRDYIEECFIHDKTMFRLTDTAGLREAGEEIEHEGIRRSRMKMAEADLILYLLDLGTERLDDELTEIRELKAAHPAAKFLTVANKLDRAANADALIRAIADGTGTEVIGISALNGDGIDTLKQHMGDLVKNLDKLHEASVLVTSLRHYEALRNASDALQNALELIAHESETELIAFELRAALDYVGQITGKVVNEEVLNTIFDKFCIGK”, the “soluble on expression in E. coli” value was “soluble”. With “DGQLTNLPGGIDEYLKRREALAAQNQSGVVNLGGNNEAASAPVPEKKLSSQEQREITKQMNALERKMGKLDPKIAKINEEMAAAAQRVDTAELTRLDAELNELTAQREGLEMEWMDLGERLES” the “soluble on expression in E. coli” value was “soluble”. In the case of “MEVTNGLNLKDTELRLGLPGAQEEQQLELSCVRSNNKRKNNDSTEESAPPPAKTQIVGWPPVRSNRKNNNNKNVSYVKVSMDGAPYLRKIDLKMYKNYPELLKALENMFKFTVGEYSEREGYKGSGFVPTYEDKDGDWMLVGDVPWDMFSSSCQKLRIMKGSEAPTAL”, the “soluble on expression in E. coli” value was “not soluble”. In the case of “MHEFRDYYGHRVRLAFADHPFSPSPGHVWVICRYGGRWLLTDHPRRGLEFPGGKVEEGETAAEAAAREVMEETGGIVGRLEYIGQYKVEPDIVKNIYFADIAALVERGSYLETNGPVLLEALPDDIRSDQRFSYFMKDDVLSLALAKLKQRGLID”, the “soluble on expression in E. coli” value was “not soluble”. With “MSLKAIVYKGPKMLEVVEIDKPIPKEGQVLVKVNRAGICGGDLGIYKGTHPRAKAPLVFGHEFSGVVEEDGKIFKKGTKVTVNPIYSCGDCVPCNSGDQHVCNTLRLVGIDRDGAMSEYVVVDENKLYELGDEMSDELGALIEPIAVAVHSVREPGYKPGDNAVVFGGGPIGLAIAFVLKKFGCTNLTIIEADDKRIAMGKDFGFDLRDAKGLDLEALKAEKTGGNGFDFVFDCAGVEPVAAQLIKASKVRGKIVIVAGYKTPTMFPVNEGMFKEVAFEFVRVYRDKDYEIAVELAKDEPMFEKLVTHVLPVEQAQEGFDLLLTPGTGAMKVLFKEGHHHHHH” the “soluble on expression in E. coli” value was “not soluble”. In the case of “MADESYDALSRGNKSNLRNEVVDMKKKPFSILFMGIEDYATKGQKGRSDSLIVVTLDPKNKTMKMLSIPRDTRVQLAGDTTGSKTKINAAYSKGGKDETVETVENFLQIPIDKYVTVDFDGFKDVINEVGGIDVDVPFDFDEKSDVDESKRIYFKKGEMHLNGEEALAYARMRKQDKRGDFGRNDRQKQILNALIDRMSSASNIAKIDKIAEKASENVETNIRITEGLALQQIYSGFTSKKIDTLSITGSDLYLGPNNTYYFEPDATNLEKVRKTLQEHLDYTPLEHHHHHH”, the “soluble on expression in E. coli” value was “soluble”. In the case of “AIAGTAFPTMAEVVAEVAEMPTQMSPGAVEMSTPMSAEMMEMSTEVTEMTPGEALASSLFFQHHQFMCSECGSLYNTLEEVLSHQEQHMLAVSEEEALTTQNVGLEPELVPGAEGPFQCGECSQLILSPGELLAHQDAHLRESANQIQYQCWDCQELFPSPELWVAHRKAQHLSATVAEPPVPPPLPPPTPLPPPSPPSEVKMEPYECPECSTLCATPEEFLEHQGTHFDSLEKEERNGLEEEEEDDEEDEEDDEEMEDEEAMAEVGDDAVGGDESTAGWAQGCGDCPQHQPSAGARRQHRRTAHSPASATHPFHCSQCQRSFSSANRLQAHGRAHVGGTHECTTCSKVFKKAASLEQHLRLHRGEARYLCVDCGRGFGTELTLVAHRRAHTANPLHRCRCGKTFSNMTKFLYHRRTHAGKSGAPPTGATAPPAPAEPTPPPPPPAPPAQLPCPQCSKSFASASRLSRHRRAVHGPPERRHRCGVCGKGFKKLIHVRNHLRTHTGERPFQCHSCGKTFASLANLSRHQLTHTGARPYQCLDCGKRFTQSSNLQQHRRLHLRPVAFARAPRLPITGLYNKSPYYCGTCGRWFRAMAGLRLHQRVHARARTLTLQPPRSPSPAPPPPPEPQQTIMCTELGETIAIIETSQPLALEDTLQLCQAALGASEAGGLLQLDTAFV”, the “soluble on expression in E. coli” value was “soluble”. In the case of “MSSPTSLEEDGDIKLKTRFQGQVVVLYARPPLILDDFFALLKDACKQHKKQDITVKWIDEDGDPISIDSQMELDEAVRCLNSSQEAELNIHVFVGKPELPGLPCQGEDKTVYRRGARRWKKIYLYNGHRFQAKRLNRRIQCFICHDYIWGIGRQGFRCVDCRLCVHKKCHRHVRTHCGQALQGPNIIPMAPASGSLKGARSNTSSSTTRSGGGIDNGAFHEHEIESPGSTSHDASRAMNGNGSSKWAVSLNDFRLLTVIGRGSYAKVVQAEHVSTRQIYAIKIIKKEMFNEDEDIDWVQTEKSVFEAASNYPFLVGLHSCFQTESRLFFVIEFVPGGDLMFHMQQQRKLPEEHARFYSGEIILALHFLHSRGIIYRDLKLDNVLIDAEGHIKLTDYGMCKENIKDGDLTSTFCGTPNYIAPEILRGDEYGFSVDWWALGVLMFEMMAGRSPFDIVGMQNSEENTEDYLFQIILERQIRIPRSLSVRASGILKGFLNKDPTERLGCKLDINEGLRDMKEHQFFRGFIDWEALEQKAVAPPYHPAVESDRDLTHFDHQFTDELPQLSPDNPDVIARIDQSEFDGFEYVNPLQMSREDSV”, the “soluble on expression in E. coli” value was “not soluble”. With “MSFQVSVAVNDGPFQKKSVTPNTTIGDLNNDAILIWKDTAIVYDISDESKNFGPTVTLEQLGVTQISMVYIYTTAFPCPSGDLRSIVPAQVRLISQFASAASSIFNGQSSSSAQSAQRTRRVEQDDEGEKSMFSRKLLDSPATFKALSENMFFRLKNEPHKLGYGLPELVERFLAKKDMTYKEFEQMFRSYVEEEVHKEEIIKNNPNSAEAKMFLEAKRNKELIDEQYLHSMTHHPEDMIAVTMLYINLTINGVPVKAFIDSGAQKSIMSMACAERCGLNGLIDRRFQSMARGVGGTEKIEGKIHLCDVKVEDAHFSCPFEVMARREMDLLIGLNVLRKHGCCINLKTSRLEFGNGTTTPFLQSNEIDSHLKEIMALPEEEMQFEDGST” the “soluble on expression in E. coli” value was “not soluble”. For “MSLTSTAFAPRSLAPARITAVRVAPLLGESPQGGWSHEIKADDSVHALIALHTDAGISGYGSVFTNGALVQAAADVLTPLLLGENALEPDRIAEKLHQNTFWMGRGGSITHTISGIDIAMWDILGQATGLSVGRLLGGRHRDRVQPYCSLLMDMPERMEAVIAPHRAAGFRAFKIGWGPFGRRGDAGLDRAIIDAARTAVGTDAQLLVDAGASDAYWPNGLKWAMNTAAMLADYDVGWFEEALPPDAIEDFIALRRMSPVPIAGGEVLTRRQSFAPWLVRGAFDIVQPDVTKVGGISEQRRIAWMARDFGIRYVGHGWNTAFGLAADLQLAAAMPDCTLVEYIGGSAYVDRLTTRPFALDAEGMLAIPDLPGLGVSPDPALLARYTPDPEKFFSAEGHHHHHH”, the “soluble on expression in E. coli” value was “soluble”.
